Data taken from patent US20240360238A1 (MAGENTA THERAPEUTICS, published 2024).

B1: HC-2/LC-2 (Ab2) (antibody, IgG1, V domains shown)
VH: QVQLVQSGAAVKKPGESLKISCKGSGYRFTTYWIGWVRQMPGKGLEWMGIIYPGDSDTRYSPSFQGQVTISAGKSISTAYLQWSSLKASDTAMYYCARHGRGYNGYEGAFDIWGQGTMVTVSS
VL: DIQLTQSPSSLSASVGDRVTITCRASQGIRTDLGWYQQKPGKAPKLLIYDASSLESGVPSRFSGSGSGTDFTLTISSLQPEDFATYYCQQFNSYPLTFGGGTKVEIK
notes: Purified IgG; also called 002
B2: HC-6/LC-6 (Ab6) (antibody, IgG1, V domains shown)
VH: QVQLVQSGAAVKKPGESLKISCKGSGYRFTTYWIGWVRQMPGKGLEWMGIIYPGDSDTRYSPSFQGQVTISAGKSISTAYLQWSSLKASDTAMYYCARHGRGYNGYEGAFDIWGQGTMVTVSS
VL: AIRMTQSPSSLSASVGDRVIIACRASQGIGGALAWYQQKPGNAPKVLVYDASTLESGVPSRFSGGGSGTDFTLTISSLQPEDFATYYCQQFNSYPLTFGGGTKLEIK
notes: Purified IgG; also called 006
B3: HC-10/LC-10 (Ab10) (antibody, IgG1, V domains shown)
VH: QVQLVQSGAAVKKPGESLKISCKGSGYRFTTYWIGWVRQMPGKGLEWMGIIYPGDSDTRYSPSFQGQVTISAGKSISTAYLQWSSLKASDTAMYYCARHGRGYNGYEGAFDIWGQGTMVTVSS
VL: NIQMTQSPSSLSTSVGDRVTITCRASQGIGTSLAWYQQKPGKPPKLLIYDASSLESGVPSRLSGSGSGTDFTLTISSLQPEDFATYYCQQSNSYPITFGQGTRLEIK
notes: Purified IgG; also called 010
B4: HC-9/LC-9 (Ab9) (antibody, IgG1, V domains shown)
VH: QVQLVQSGAAVKKPGESLKISCKGSGYRFTTYWIGWVRQMPGKGLEWMGIIYPGDSDTRYSPSFQGQVTISAGKSISTAYLQWSSLKASDTAMYYCARHGRGYNGYEGAFDIWGQGTMVTVSS
VL: AIRMTQSPSSLSASVGDRVTITCQASQGIRNDLGWYQQKPGKAPKLLIYDASNLETGVPSRFSGSGSGTDFTFTISSLQPEDIATYYCQQFNSYPLTFGGGTKLEIK
notes: Purified IgG; also called 009
B5: HC-16/LC-16 (Ab16) (antibody, IgG1, V domains shown)
VH: QVQLVQSGAAVKKPGESLKISCKGSGYRFTTYWIGWVRQMPGKGLEWMGIIYPGDSDTRYSPSFQGQVTISAGKSISTAYLQWSSLKASDTAMYYCARHGRGYNGYEGAFDIWGQGTMVTVSS
VL: AIQLTQSPSSLSASVGDRVTITCRASQGITSALAWYQEKPGKAPNLLIYDASSLESGVPSRFSGSGYGTDFTLTISSLQPEDFATYYCQQLNSYPLTFGGGTKVDIK
notes: Purified IgG; also called 016
B6: HC-12/LC-12 (Ab12) (antibody, IgG1, V domains shown)
VH: QVQLVQSGAAVKKPGESLKISCKGSGYRFTTYWIGWVRQMPGKGLEWMGIIYPGDSDTRYSPSFQGQVTISAGKSISTAYLQWSSLKASDTAMYYCARHGRGYNGYEGAFDIWGQGTMVTVSS
VL: DIQLTQSPSSLSASVGDRVTITCRASQGVRSTLAWYQQKPGKAPKLLIYDASILESGVPSRFSGSGSGTDFTLTISSLQPEDFATYYCQQFNGYPLTFGQGTRLEIK
notes: Purified IgG; also called 012
B7: HC-3/LC-3 (Ab3) (antibody, IgG1, V domains shown)
VH: QVQLVQSGAAVKKPGESLKISCKGSGYRFTTYWIGWVRQMPGKGLEWMGIIYPGDSDTRYSPSFQGQVTISAGKSISTAYLQWSSLKASDTAMYYCARHGRGYNGYEGAFDIWGQGTMVTVSS
VL: AIRMTQSPSSLSASVGDRVTITCRASQGIRNDLAWYQQKPGKTPKLLIYDASSLESGVPSRFSGSGSGTDFTLTISSLQPEDFATYYCQQFNSYPLTFGGGTKVEIK
notes: Purified IgG; also called 003
B8: HC-14/LC-14 (Ab14) (antibody, IgG1, V domains shown)
VH: QVQLVQSGAAVKKPGESLKISCKGSGYRFTTYWIGWVRQMPGKGLEWMGIIYPGDSDTRYSPSFQGQVTISAGKSISTAYLQWSSLKASDTAMYYCARHGRGYNGYEGAFDIWGQGTMVTVSS
VL: DIQLTQSPSSLSASVGDRVTITCRASQGISSFLAWYQQKPGKAPKLLIYDASTLQSGVPSRFSGSASGTDFTLTISSLQPEDFATYYCQQLNGYPLTFGGGTKVEIK
notes: Purified IgG; also called 014
B9: HC-8/LC-8 (Ab8) (antibody, IgG1, V domains shown)
VH: QVQLVQSGAAVKKPGESLKISCKGSGYRFTTYWIGWVRQMPGKGLEWMGIIYPGDSDTRYSPSFQGQVTISAGKSISTAYLQWSSLKASDTAMYYCARHGRGYNGYEGAFDIWGQGTMVTVSS
VL: DIQMTQSPSSLSASVGDRVTITCRASQGISSALAWYQQKAGKAPKVLISDASSLESGVPSRFSGSGSGTDFTLSISSLQPEDFATYYCQQFNGYPLTFGGGTKVDIK
notes: Purified IgG; also called 008
B10: HC-15/LC-15 (Ab15) (antibody, IgG1, V domains shown)
VH: QVQLVQSGAAVKKPGESLKISCKGSGYRFTTYWIGWVRQMPGKGLEWMGIIYPGDSDTRYSPSFQGQVTISAGKSISTAYLQWSSLKASDTAMYYCARHGRGYNGYEGAFDIWGQGTMVTVSS
VL: AIQLTQSPSSLSASVGDRVTITCRASQGIGSALAWYQQKPGIGPKLLIYDASTLESGVPARFSGSGSRTDFTLTITSLQPEDFATYYCQQFNGYPLTFGGGTKLEIK
notes: Purified IgG; also called 015
B11: HC-4/LC-4 (Ab4) (antibody, IgG1, V domains shown)
VH: QVQLVQSGAAVKKPGESLKISCKGSGYRFTTYWIGWVRQMPGKGLEWMGIIYPGDSDTRYSPSFQGQVTISAGKSISTAYLQWSSLKASDTAMYYCARHGRGYNGYEGAFDIWGQGTMVTVSS
VL: AIQMTQSPSSLSASVGDRVTITCRASQGIRNDLGWYQQKPGKAPKLLIYDASSLESGVPSRFSGSGSGTDFTLTISSLQPEDFATYYCQQFNSYPLTFGGGTKVDIK
notes: Purified IgG; also called 004
B12: HC-5/LC-5 (Ab5) (antibody, IgG1, V domains shown)
VH: QVQLVQSGAAVKKPGESLKISCKGSGYRFTTYWIGWVRQMPGKGLEWMGIIYPGDSDTRYSPSFQGQVTISAGKSISTAYLQWSSLKASDTAMYYCARHGRGYNGYEGAFDIWGQGTMVTVSS
VL: NIQMTQSPSSLSASVGDRVTITCRASQAISDYLAWFQQKPGKAPKLLIYDASNLETGVPSRFSGSGSGTDFTLTISSLQPEDFATYYCQQLNSYPLTFGGGTKVEIK
notes: Purified IgG; also called 005
B13: HC-7/LC-7 (Ab7) (antibody, IgG1, V domains shown)
VH: QVQLVQSGAAVKKPGESLKISCKGSGYRFTTYWIGWVRQMPGKGLEWMGIIYPGDSDTRYSPSFQGQVTISAGKSISTAYLQWSSLKASDTAMYYCARHGRGYNGYEGAFDIWGQGTMVTVSS
VL: DIAMTQSPPSLSAFVGDRVTITCRASQGIISSLAWYQQKPGKAPKLLIYDASSLESGVPSRFSGSGSGTDFTLTIRSLQPEDFATYYCQQFNSYPLTFGGGTKLEIK
notes: Purified IgG; also called 007
B14: HC-13/LC-13 (Ab13) (antibody, IgG1, V domains shown)
VH: QVQLVQSGAAVKKPGESLKISCKGSGYRFTTYWIGWVRQMPGKGLEWMGIIYPGDSDTRYSPSFQGQVTISAGKSISTAYLQWSSLKASDTAMYYCARHGRGYNGYEGAFDIWGQGTMVTVSS
VL: DIVMTQSPSSLSASVGDRVTITCRASQGIRNDLGWYQQKPGKAPKLLIYDASSLESGVPSRFSGSGSGTDFTLTISSLQPEDFATYYCQQFNSYPLTFGGGTKLEIK
notes: Purified IgG; also called 013

biological target: T1, purified human CD117 ectodomain (R&D Systems #332-SR) (human, UniProt P10721 26-524); assay: BLI, purified IgG on sensor, soluble ectodomain; apparent monovalent
T1 construct: extracellular domain; Bought protein; also called c-kit; purified recombinant human CD117 ectodomain
T1 sequence (P10721 26-524): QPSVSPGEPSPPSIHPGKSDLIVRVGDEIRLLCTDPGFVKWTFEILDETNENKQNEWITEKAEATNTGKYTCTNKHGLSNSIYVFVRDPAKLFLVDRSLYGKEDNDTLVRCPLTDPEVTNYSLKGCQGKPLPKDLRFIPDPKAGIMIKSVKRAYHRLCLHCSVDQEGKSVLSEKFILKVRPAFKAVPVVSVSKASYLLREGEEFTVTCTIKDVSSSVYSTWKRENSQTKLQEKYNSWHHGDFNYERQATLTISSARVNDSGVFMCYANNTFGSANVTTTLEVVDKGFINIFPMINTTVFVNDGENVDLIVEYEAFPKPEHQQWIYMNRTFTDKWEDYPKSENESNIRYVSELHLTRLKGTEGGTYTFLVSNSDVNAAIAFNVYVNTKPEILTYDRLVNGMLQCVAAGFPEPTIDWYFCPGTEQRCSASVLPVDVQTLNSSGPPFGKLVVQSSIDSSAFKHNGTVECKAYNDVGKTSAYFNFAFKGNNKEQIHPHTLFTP

Going from B1 to B2, the Kd rises from 0.729 nM to 3.72 nM (5.1-fold). The first binds more tightly here.

B3 and B4 are within 1.5-fold of each other in Kd: 1.68 nM for the first, 1.51 nM for the second.

First: B5
Second: B6
The Kd of the first is 3.2-fold higher: 2.93 nM for the first, 0.911 nM for the second. The second binds more tightly here.

First: B7
Second: B8
The Kd of the first is 2-fold lower: 1.02 nM for the first, 2.03 nM for the second. The first binds more tightly here.

B9 and B10 are within 1.5-fold of each other in Kd: 0.908 nM for the first, 0.979 nM for the second.

B11 and B12 are within 1.5-fold of each other in Kd: 1.18 nM for the first, 1.21 nM for the second.

Going from B13 to B14, the Kd rises from 0.99 nM to 1.55 nM (1.6-fold). The first binds more tightly here.

First: B1
Second: B2
The koff of the first is 4.3-fold lower: 0.00027 s⁻¹ for the first, 0.00117 s⁻¹ for the second.

B3 and B4 are within 1.5-fold of each other in koff: 0.000585 s⁻¹ for the first, 0.000427 s⁻¹ for the second.

First: B5
Second: B6
The koff of the first is 3.5-fold higher: 0.000949 s⁻¹ for the first, 0.000268 s⁻¹ for the second.

Going from B7 to B8, the koff rises from 0.000352 s⁻¹ to 0.000577 s⁻¹ (1.6-fold).

B9 and B10 are within 1.5-fold of each other in koff: 0.000264 s⁻¹ for the first, 0.00026 s⁻¹ for the second.

B11 and B12 are within 1.5-fold of each other in koff: 0.000405 s⁻¹ for the first, 0.000461 s⁻¹ for the second.

Compared with B13, B14 is 1.8-fold higher in koff: 0.000272 s⁻¹ for the first, 0.000488 s⁻¹ for the second.

B1 and B2 are within 1.5-fold of each other in kon: 370000 M⁻¹ s⁻¹ for the first, 315000 M⁻¹ s⁻¹ for the second.

B3 and B4 are within 1.5-fold of each other in kon: 348000 M⁻¹ s⁻¹ for the first, 283000 M⁻¹ s⁻¹ for the second.

B5 and B6 are within 1.5-fold of each other in kon: 324000 M⁻¹ s⁻¹ for the first, 294000 M⁻¹ s⁻¹ for the second.

B7 and B8 are within 1.5-fold of each other in kon: 346000 M⁻¹ s⁻¹ for the first, 284000 M⁻¹ s⁻¹ for the second.

B9 and B10 are within 1.5-fold of each other in kon: 290000 M⁻¹ s⁻¹ for the first, 265000 M⁻¹ s⁻¹ for the second.

B11 and B12 are within 1.5-fold of each other in kon: 345000 M⁻¹ s⁻¹ for the first, 380000 M⁻¹ s⁻¹ for the second.

B13 and B14 are within 1.5-fold of each other in kon: 275000 M⁻¹ s⁻¹ for the first, 314000 M⁻¹ s⁻¹ for the second.
